One may read the IC50 as the concentration that gives 50% inhibition. What is called EC50 is the concentration that produces a half-maximal response. A word on the Kd: it is the concentration at which binding is half-saturated. Broadly, the koff is the first-order rate constant of dissociation. As usually defined, the kon is the second-order rate constant of association. The TGI is the reduction of tumour growth relative to the control group. A word on the T/C: it is the result in the treated group divided by that in the control group, in per cent.

Where two headings read alike, the source gives them in different places. Non-standard residues stand in square brackets, D forms with d. Residues, ends and D or L forms follow the SMILES beside them. *: point of attachment. Dolaproine = CO[C@@H]([C@@H]1CCCN1)[C@@H](C)C(=O)O; Dil = CC[C@H](C)[C@H](NC)[C@@H](CC(=O)O)OC; X1 = C[C@@H](N*)[C@@H](O)c1ccccc1; NMeV = CN[C@H](C(=O)O)C(C)C

The text below walks through data of EP4796128A1, “ANTI-C-MET ANTIBODY-DRUG CONJUGATE COMPRISING CAMPTOTHECIN DERIVATIVE” (Celltrion, Inc., priority 2023, dated 2025).

In one assay the test system is NCI-H1975. Nature of the assay: In-vitro cell viability assay (CellTiter-Glo). It is filed as cell-based. Particulars: Homo sapiens. For orientation: Cellular ATP, detected with luciferase, serves as a proxy for viable cell number.
The test system of another assay is T47D. Nature of the assay: cells. It is filed as cell-based. Particulars: Homo sapiens, 144 h.
The subject of another assay is NCI-H1573. Nature of the assay: In-vitro cell viability assay (CellTiter-Glo). It is filed as cell-based. As to conditions: Homo sapiens.
Another assay has as its system SNU-5. In words: In-vitro cell viability assay (CellTiter-Glo). It is filed as cell-based. Particulars: Homo sapiens.
The next assay has as its system HT29. In words: In-vitro cell viability assay (CellTiter-Glo). Particulars: Homo sapiens, HT-29, 144 h. Format: cell-based.
The target of assay [1] is T1, monkey c-Met (cynomolgus c-Met) (monkey (cynomolgus), UniProt A0A2K5UM36 25-932).
T1 construct: Recombinant protein used in ELISA and BLI; also called monkey-derived c-MET protein; recombinant monkey c-Met
T1 sequence (A0A2K5UM36 entry or part of it limits assumed, form in doubt): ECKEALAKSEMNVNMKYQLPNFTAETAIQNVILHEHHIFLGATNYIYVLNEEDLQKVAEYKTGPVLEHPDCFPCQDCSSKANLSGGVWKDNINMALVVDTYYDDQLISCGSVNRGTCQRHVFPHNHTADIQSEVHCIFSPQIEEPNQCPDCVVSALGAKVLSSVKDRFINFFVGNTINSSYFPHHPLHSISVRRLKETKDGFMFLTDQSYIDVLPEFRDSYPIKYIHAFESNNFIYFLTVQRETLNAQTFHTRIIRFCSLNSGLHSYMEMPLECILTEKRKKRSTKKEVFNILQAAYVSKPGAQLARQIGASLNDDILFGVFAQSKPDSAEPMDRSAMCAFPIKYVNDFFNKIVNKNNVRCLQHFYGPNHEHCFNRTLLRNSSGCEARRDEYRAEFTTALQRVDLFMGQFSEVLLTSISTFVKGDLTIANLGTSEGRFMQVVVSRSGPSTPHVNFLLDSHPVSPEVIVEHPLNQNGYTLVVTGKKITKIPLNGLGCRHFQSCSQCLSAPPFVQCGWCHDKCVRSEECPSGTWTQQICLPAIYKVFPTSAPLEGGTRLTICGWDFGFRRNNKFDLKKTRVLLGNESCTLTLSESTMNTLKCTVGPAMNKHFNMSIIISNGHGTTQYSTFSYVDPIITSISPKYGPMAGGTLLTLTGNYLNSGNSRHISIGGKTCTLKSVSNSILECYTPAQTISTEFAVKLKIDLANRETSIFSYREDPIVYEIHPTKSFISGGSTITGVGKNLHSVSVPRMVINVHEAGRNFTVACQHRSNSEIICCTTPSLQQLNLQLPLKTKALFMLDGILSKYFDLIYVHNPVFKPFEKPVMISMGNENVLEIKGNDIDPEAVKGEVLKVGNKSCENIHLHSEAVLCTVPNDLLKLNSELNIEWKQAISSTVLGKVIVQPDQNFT
In words: ELISA on monkey (cynomolgus) c-Met. For orientation: ELISA stands for enzyme-linked immunosorbent assay.

In assay [2] the target is T2, recombinant human c-Met (human, UniProt P08581 25-932).
T2 construct: Recombinant protein used in ELISA and BLI; also called human c-MET protein; human-derived c-Met protein
T2 sequence (P08581 25-932 limits assumed): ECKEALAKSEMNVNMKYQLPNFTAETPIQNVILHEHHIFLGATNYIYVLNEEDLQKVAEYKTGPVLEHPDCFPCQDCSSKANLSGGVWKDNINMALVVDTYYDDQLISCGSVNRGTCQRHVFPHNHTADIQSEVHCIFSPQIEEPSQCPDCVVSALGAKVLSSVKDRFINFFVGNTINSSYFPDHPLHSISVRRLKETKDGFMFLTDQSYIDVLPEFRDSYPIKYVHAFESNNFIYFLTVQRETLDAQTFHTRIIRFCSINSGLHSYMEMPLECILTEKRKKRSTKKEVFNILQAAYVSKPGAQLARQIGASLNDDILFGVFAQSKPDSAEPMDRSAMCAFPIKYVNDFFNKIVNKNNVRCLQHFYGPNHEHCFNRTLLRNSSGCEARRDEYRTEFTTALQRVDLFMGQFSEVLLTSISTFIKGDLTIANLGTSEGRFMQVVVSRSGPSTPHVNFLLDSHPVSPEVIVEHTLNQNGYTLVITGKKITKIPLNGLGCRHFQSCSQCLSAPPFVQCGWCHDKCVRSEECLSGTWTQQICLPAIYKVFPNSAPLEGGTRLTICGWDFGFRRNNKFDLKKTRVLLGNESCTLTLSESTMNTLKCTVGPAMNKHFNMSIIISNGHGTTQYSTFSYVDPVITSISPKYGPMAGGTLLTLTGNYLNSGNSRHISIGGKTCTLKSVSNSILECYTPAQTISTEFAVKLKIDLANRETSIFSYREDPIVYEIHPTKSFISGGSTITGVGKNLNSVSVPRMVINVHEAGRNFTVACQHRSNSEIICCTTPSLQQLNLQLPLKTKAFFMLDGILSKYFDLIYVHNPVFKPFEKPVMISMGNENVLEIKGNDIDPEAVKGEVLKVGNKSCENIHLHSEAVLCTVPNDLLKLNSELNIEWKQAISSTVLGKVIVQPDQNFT
In words: BLI, antibody as loading sample, human c-Met. On the technique in general: Biolayer interferometry detects binding as a change in optical thickness at a sensor tip.

Assay [3] concerns the target T2, recombinant human c-Met. In words: ELISA on recombinant human c-Met.
For assay [4], the target named is T1, monkey c-Met (cynomolgus c-Met). Nature of the assay: BLI, antibody as loading sample, monkey c-Met.
A further assay has as its target T3, c-Met derived from mice (mice, UniProt P16056 25-931, limits assumed).
T3 construct: Antigen of the cross-reactivity ELISA; also called mouse c-Met
In words: ELISA, cross-reactivity test with diluted M01.

The target of another assay is T4, c-Met derived from rats (rats, UniProt P97523 25-935, limits assumed).
T4 construct: Antigen of the cross-reactivity ELISA; also called rat c-Met
T4 sequence (P97523 25-935 limits assumed): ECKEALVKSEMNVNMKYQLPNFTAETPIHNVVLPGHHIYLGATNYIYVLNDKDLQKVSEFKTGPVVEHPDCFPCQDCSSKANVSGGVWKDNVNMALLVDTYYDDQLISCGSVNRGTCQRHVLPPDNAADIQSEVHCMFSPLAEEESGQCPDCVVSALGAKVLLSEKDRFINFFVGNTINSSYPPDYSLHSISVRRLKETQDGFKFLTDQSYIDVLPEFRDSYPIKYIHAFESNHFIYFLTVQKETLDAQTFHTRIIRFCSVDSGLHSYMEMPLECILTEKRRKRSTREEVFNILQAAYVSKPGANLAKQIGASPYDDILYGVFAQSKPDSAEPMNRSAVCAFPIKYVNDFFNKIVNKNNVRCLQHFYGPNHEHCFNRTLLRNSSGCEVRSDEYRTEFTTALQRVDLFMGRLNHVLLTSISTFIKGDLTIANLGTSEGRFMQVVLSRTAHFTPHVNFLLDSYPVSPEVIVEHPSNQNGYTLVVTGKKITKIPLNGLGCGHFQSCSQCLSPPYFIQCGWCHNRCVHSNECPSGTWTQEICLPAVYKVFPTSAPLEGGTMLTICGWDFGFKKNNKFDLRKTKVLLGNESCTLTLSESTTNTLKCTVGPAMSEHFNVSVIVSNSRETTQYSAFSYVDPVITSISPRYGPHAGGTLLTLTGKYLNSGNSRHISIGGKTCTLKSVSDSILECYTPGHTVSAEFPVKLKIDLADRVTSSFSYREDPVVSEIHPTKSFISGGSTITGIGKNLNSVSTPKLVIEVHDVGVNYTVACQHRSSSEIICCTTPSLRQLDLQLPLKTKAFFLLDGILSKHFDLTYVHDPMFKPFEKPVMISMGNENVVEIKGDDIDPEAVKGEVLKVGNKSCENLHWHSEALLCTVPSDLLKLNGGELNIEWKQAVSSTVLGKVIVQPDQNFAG
Nature of the assay: ELISA, cross-reactivity test with diluted M01.

A further assay deals with T5, c-Met derived from dogs (dogs, UniProt Q75ZY9 25-935, limits assumed).
T5 construct: Antigen of the cross-reactivity ELISA; also called dog c-Met
T5 sequence (Q75ZY9 25-935 limits assumed): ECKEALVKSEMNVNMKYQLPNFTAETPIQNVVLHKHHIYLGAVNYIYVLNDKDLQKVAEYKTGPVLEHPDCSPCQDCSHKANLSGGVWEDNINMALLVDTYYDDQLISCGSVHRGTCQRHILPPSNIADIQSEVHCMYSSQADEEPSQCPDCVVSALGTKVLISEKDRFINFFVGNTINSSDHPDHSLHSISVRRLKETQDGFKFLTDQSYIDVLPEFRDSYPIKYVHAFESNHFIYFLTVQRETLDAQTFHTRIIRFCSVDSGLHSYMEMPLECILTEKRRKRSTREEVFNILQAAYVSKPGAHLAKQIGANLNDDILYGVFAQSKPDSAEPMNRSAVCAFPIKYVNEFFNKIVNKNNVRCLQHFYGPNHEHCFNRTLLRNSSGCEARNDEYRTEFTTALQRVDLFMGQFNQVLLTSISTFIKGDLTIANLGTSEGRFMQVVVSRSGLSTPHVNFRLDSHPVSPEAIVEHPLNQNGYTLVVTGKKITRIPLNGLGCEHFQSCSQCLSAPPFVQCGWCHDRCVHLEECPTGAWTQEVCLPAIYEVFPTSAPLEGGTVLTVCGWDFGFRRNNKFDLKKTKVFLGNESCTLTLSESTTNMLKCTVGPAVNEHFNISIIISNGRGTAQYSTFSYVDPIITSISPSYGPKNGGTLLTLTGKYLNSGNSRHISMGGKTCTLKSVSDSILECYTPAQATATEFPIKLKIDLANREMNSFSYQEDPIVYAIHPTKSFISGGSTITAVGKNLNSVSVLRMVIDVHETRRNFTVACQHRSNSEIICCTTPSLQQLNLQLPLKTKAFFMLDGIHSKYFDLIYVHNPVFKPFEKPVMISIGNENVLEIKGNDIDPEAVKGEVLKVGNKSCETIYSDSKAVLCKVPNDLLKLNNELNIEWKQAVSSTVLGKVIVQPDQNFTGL
In words: ELISA, cross-reactivity test with diluted M01.

In assay [5] the test system is NCI-H441 human lung cancer xenograft. In words: NCI-H441 human lung cancer xenograft model. Format: in vivo, BALB/c nude mice. As to conditions: 3 mg/kg i.v. QW × 2 weeks. As to the method:
NCI-H441 tumor cells (ATCC, Catalog No. HTB-174) were maintained in vitro in RPMI 1640 medium supplemented with 10% FBS and 1% antibiotic-antimycotic at 37°C and 5% CO2 in air. Tumor cells NCI-H441 were routinely passaged twice a week by treatment with trypsin-EDTA. The cells with exponential growth were harvested and counted for tumor inoculation.
Mice were randomly assigned to groups of 10 each, and tumor cells were inoculated into the mice according to the experimental conditions shown in Table 19 below. Specifically, NCI-H441 tumor cells (5 × 10^6 cells/mouse) were subcutaneously inoculated into the right flank of each mouse together with 0.2 mL of PBS containing Matrigel (1:1). Treatment was started on day 14 after inoculation, when the mean tumor volume reached 180 mm^3, and the treatment start date was set as day 0. This experiment was performed for 35 days.
Statistical analysis was performed on the data obtained 35 days after the start of the experiment to determine differences in tumor volume and tumor weight between groups. […] All data were analyzed using SPSS 29.0. p < 0.05 was considered statistically significant.

T3 sequence (P16056 25-931 limits assumed): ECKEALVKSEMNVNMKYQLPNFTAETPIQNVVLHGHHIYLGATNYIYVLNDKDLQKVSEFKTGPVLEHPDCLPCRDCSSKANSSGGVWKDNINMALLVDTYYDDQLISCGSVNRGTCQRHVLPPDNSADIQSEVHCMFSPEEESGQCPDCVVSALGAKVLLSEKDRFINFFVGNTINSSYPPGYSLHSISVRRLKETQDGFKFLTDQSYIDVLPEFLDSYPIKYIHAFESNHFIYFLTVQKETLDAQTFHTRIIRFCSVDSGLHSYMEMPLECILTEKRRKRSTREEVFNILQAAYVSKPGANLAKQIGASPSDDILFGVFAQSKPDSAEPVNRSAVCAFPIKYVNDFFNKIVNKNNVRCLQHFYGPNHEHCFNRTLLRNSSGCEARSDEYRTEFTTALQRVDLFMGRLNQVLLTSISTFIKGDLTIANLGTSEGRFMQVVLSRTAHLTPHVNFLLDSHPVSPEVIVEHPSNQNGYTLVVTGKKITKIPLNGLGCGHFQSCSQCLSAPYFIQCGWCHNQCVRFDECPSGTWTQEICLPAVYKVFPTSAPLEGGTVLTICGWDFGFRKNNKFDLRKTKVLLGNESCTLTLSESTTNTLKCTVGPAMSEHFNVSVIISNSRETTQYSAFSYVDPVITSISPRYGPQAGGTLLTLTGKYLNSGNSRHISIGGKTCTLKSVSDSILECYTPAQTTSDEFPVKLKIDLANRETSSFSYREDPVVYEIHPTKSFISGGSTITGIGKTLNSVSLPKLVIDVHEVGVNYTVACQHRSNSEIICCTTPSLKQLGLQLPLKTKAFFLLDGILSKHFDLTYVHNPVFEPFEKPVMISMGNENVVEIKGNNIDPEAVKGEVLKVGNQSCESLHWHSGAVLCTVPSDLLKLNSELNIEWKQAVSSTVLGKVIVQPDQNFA

Turning to `CC[C@H](C)[C@@H]([C@@H](CC(=O)N1CCC[C@H]1[C@H](OC)[C@@H](C)C(=O)N[C@H](C)[C@@H](O)c1ccccc1)OC)N(C)C(=O)[C@@H](NC(=O)[C@@H](NC)C(C)C)C(C)C` [MMAE, monomethyl auristatin E, reference compound] (H-[NMeV]V[Dil][Dolaproine]-X1), the IC50 in the assay on NCI-H1975 (144 h, NCI-H1975, 6 days incubation, read-out: IC50) was found to be 0.3 nM; in the assay on T47D (6 days incubation, read-out: IC50), 0.51 nM; in the assay on NCI-H1573 (144 h, NCI-H1573, 6 days incubation, read-out: IC50), 0.42 nM; in the assay on SNU-5 (144 h, SNU-5, 6 days incubation, read-out: IC50), 0.42 nM; in the assay with HT29 (HT29, 6 days incubation, read-out: IC50), 0.14 nM.

Turning to `CC[C@@]1(O)C(=O)OCc2c1cc1n(c2=O)Cc2c-1nc1cc3c(c4c1c2[C@@H](NC(=O)[C@@H](C)O)CC4)OCO3` [PBX-7016], the IC50 was 9.8 nM in the assay with NCI-H1975 (NCI-H1975, 144 h); 0.45 nM with T47D; 2.55 nM in the assay on NCI-H1573 (NCI-H1573, 144 h); 5.21 nM with SNU-5 (SNU-5, 144 h); 3.8 nM with HT29.

B1: anti-c-Met antibody (M01) (antibody, human IgG1, kappa, V domains shown)
VH: QVQLVQSGAEVKKPGASVKVSCKASGYIFTAYTMHWVRQAPGQGLEWMGWIKPNNGLANYAQKFQGRVTMTRDTSISTAYMELSRLRSDDTAVYYCARSEITTEFDYWGQGTLVTVSS
VL: DIVMTQSPDSLAVSLGERATINCKSSESVDSYANSFLHWYQQKPGQPPKLLIYRASTRESGVPDRFSGSGSGTDFTLTISSLQAEDVAVYYCQQSKEDPLTFGGGTKVEIKR
notes: Naked antibody; also called M01 antibody; M01 (Anti-cMet mAb)
In the case of B1, the EC50 (in assay [1]; in the assay with recombinant human c-Met [3]) was 0.14 nM each time. Besides, the results for the Kd (in the assay with recombinant human c-Met [2]; in assay [4]) were 0.605 nM and 0.707 nM, respectively. Also, the koff with recombinant human c-Met [2] was 4.07e-05 s⁻¹; in assay [4], 5.69e-05 s⁻¹. Also, the figures for the kon (in the assay with recombinant human c-Met [2]; in assay [4]) were 67400 M⁻¹ s⁻¹ and 80500 M⁻¹ s⁻¹, respectively. The binding result in the assay with c-Met derived from mice, with c-Met derived from rats and in the assay with c-Met derived from dogs was “no binding” each time.

B2: P23-MMAE: isotype ADC: anti-influenza A antibody (Navivumab, P23) with monomethyl auristatin E payload; DAR 3.1 (conjugate, chains of the INN, looked up)
VH: QVQLVQSGAEVKKPGASVKVSCKTSGYSFSTYGVSWVRQAPGQGPEWVGWISAYTGITDYAQKFQGRVTLTTDATTATAFLDLRSLRPDDTATYFCARDKVQGRVEVGSGGRHDYWGQGTLVIVSS
VL: EVVLTQSPGTLALPPGERATLSCRASHRVGSTYIAWYQQKSGQAPRRLIYGASNRATDIPDRFSGSGSGTDFTLTIRRLEPEDSAVYYCQQFSVSPWTFGQGTRVEIK
modifications: MMAE payload, DAR 3.1
For B2, the “Tumor Volume” value in assay [5] (Day 0, mean ± SEM) is 180 ± 13 mm^3; in assay [5] (Day 4, mean ± SEM) it was 208 ± 19 mm^3; in assay [5] (Day 7, mean ± SEM), 244 ± 26 mm^3; in assay [5] (Day 11, mean ± SEM), 283 ± 36 mm^3; in [5] (Day 14, mean ± SEM), 287 ± 39 mm^3; in assay [5] (Day 18, mean ± SEM), 358 ± 66 mm^3. Further, the “Tumor Volume” value in assay [5] (Day 21, mean ± SEM) was 396 ± 71 mm^3; in assay [5] (Day 25, mean ± SEM), 563 ± 93 mm^3; in assay [5] (Day 28, mean ± SEM), 708 ± 119 mm^3; in assay [5] (Day 32, mean ± SEM) it was 977 ± 193 mm^3. Further, in [5] (Day 35), the TGI was determined as 26.27%. Also, the “Tumor Weight on Day 35” value in [5] (Day 35) amounted to 1.342 ± 0.247 g. This molecule also registered a T/C in [5] (Day 35, tumor volume vs P23 isotype mAb group) of 76.70%. For the same molecule, the T/Cweight in assay [5] (Day 35, tumor weight vs P23 isotype mAb group) was 80.39%.
